Molecular target: T1, 带有His组氨酸标签蛋白的人ST2重组蛋白 (human, UniProt Q01638 19-328, limits assumed)
T1 construct: Captured on a His-capture BLI sensor; also called His-tagged recombinant human ST2 protein; not shown: His tag
T1 sequence (looked up): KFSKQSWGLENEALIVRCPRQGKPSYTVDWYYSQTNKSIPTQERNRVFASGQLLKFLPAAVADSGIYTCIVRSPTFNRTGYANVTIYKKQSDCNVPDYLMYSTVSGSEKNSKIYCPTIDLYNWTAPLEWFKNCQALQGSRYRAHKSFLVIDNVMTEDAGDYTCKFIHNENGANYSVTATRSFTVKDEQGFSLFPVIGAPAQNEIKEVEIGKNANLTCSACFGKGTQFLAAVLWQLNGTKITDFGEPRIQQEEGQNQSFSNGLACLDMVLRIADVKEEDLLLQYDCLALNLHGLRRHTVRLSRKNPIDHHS
Experiment: BLI, His-tagged human ST2 captured on HIS sensor, antibody in solution at several concentrations

B1: 检测抗体D12(抗人ST2的单克隆抗体) (antibody, V domains shown)
VH: QVTLKESGPGILQPSQTLSLTCSFSGFSLSTSGMGVGWIRQPSGKGLEWLAHIWWDDVKQYNPALKSRLTISKDTSSSQVFLKIASVDTADIATYYCARLGGNWDYFDYWGQGTTLTVSS
VL: DIVLTQSPASLVVSLGQRATISCRASESVDSCGVSFMKWLQQKPGQPPKLLIYVASKVESGVPARFGGSGSGTDFSLNIHPVEEDDFAVYFCQQSRKVPWTFGGGTKLEIK
notes: Mouse hybridoma monoclonal antibody purified from ascites on Protein G; HRP-labelled in one orientation of the sandwich ELISA; coupled to fluorescent microspheres in the strip; also called detection antibody
B1 showed a Kd of 0.02 nM.

Reference: patent publication CN117024595A (JIANGXI LECHENG XINSHENG BIOTECHNOLOGY RES CO LTD, dated 2023)
